Results from patent US6730301.

B1: RANTES (ligand, UniProt P13501 24-91, looked up)
chain: SPYSSDTTPCCFAYIARPLPRAHIKEYFYTSGKCSNPAVVFVTRKNRQVCANPEKKWVREYINSLEMS
B2: MIP-1α (ligand, UniProt P10147 27-92, looked up)
chain: ADTPTACCFSYTSRQIPQNFIADYFETSSQCSKPGVIFLTKRSRQVCADPSEEWVQKYVSDLELSA
B3: MIP-1β (ligand, UniProt P13236 24-92, looked up)
chain: APMGSDPPTACCFSYTARKLPRNFVVDYYETSSLCSQPAVVFQTKRSKQVCADPSESWVQEYVYDLELN

Experiments:
Experiment in all cases: cell-based or functional assay
[1] = biological target: MIP-1α/RANTES receptor (Homo sapiens (Human)) (UniProt P32246)
[2] = biological target: MCP-1RB (monocyte chemoattractant protein-1 receptor B) (human) (UniProt P41597)
MIP-1α/RANTES receptor = biological target: T1, MIP-1α/RANTES receptor (Homo sapiens (Human), UniProt P32246 1-355)
T1 sequence: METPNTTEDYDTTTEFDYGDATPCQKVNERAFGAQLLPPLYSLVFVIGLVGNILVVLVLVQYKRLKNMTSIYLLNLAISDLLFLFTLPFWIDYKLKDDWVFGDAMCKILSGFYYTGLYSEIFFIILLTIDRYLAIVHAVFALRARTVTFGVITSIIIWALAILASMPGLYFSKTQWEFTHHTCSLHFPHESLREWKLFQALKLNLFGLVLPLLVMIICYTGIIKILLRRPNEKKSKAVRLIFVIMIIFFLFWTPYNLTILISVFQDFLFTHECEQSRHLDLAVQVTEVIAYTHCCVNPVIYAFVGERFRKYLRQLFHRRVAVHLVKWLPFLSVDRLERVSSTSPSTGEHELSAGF

MCP-1RB (monocyte chemoattractant protein-1 receptor B) (human), sequence (P41597 other isoform, or with tags, fused parts or gaps): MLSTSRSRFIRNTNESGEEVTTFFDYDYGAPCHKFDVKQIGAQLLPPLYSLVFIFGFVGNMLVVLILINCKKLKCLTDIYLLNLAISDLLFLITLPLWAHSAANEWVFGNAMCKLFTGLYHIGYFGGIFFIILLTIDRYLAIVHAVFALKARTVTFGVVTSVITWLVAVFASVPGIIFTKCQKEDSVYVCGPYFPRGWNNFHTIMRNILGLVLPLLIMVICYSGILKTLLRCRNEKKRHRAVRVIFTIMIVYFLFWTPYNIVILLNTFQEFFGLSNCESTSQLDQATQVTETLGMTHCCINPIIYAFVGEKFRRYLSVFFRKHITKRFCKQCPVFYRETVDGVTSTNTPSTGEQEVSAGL

Molecule | IC50, Inhibition of Adenylyl Cyclase [1] | IC50, Inhibition of Adenylyl Cyclase [2] | IC50, Inhibition of Adenylyl Cyclase (MIP-1α/RANTES receptor) | Selectivity (against MCP-1RB), inhibition of adenylyl cyclase (MIP-1α/RANTES receptor)
Gro-α (from UniProt P09341 35-107) (ligand) | > 1000 nM | > 1000 nM | – | –
IL-8 (interleukin-8) (from UniProt P10145 28-99) (ligand) | – | > 1000 nM | – | –
B1 | – | > 1000 nM | 0.14 nM | > 7000 fold
B2 | – | > 1000 nM | 0.11 nM | > 9000 fold
B3 | – | > 1000 nM | 10 nM | > 100 fold
